Results on 2 molecules are retold here after PMC3675498.

Read-outs that look alike come from different tables or passages of the source.

Holding throughout (experiment): EMSA
(In general: In EMSA bound probe runs differently from free probe, usually more slowly.)

One data set has as its target Cse4-Δ90 octamer (UniProt P36012;P02309;P04911;P02293 91-229;2-103;2-132;2-131).
The target in data set [1] is T1, Cse4 octamer (Cse4/H4/H2A/H2B), splits to hemisome (UniProt P36012;P02309;P04911;P02293 1-229;1-103;1-132;1-131).
Data set [2] addresses T2, H3 octamer (H3/H4/H2A/H2B), splits to hemisome (UniProt P61830;P02309;P04911;P02293 2-136;2-103;2-132;2-131).
Data set [3] deals with T2, H3 octamer (H3/H4/H2A/H2B), splits to …. The source holds these as a separate data set.
Data set [4] addresses T1, Cse4 octamer (Cse4/H4/H2A/H2B), splits …. The source holds these as a separate data set.

T1 sequence (P36012 whole entry, chain 1 of 2): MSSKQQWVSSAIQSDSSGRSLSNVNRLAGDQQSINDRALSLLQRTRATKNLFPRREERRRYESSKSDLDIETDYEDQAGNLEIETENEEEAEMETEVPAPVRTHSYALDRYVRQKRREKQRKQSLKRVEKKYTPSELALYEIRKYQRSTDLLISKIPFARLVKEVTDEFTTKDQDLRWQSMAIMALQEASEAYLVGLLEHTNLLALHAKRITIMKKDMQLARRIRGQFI
T1 sequence (P02293 whole entry, chain 4 of 2): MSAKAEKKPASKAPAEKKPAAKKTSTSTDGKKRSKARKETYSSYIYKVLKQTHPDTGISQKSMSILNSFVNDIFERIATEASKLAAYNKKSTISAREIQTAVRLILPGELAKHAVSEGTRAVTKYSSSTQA
T2 sequence (P04911 2-132, chain 3 of 2): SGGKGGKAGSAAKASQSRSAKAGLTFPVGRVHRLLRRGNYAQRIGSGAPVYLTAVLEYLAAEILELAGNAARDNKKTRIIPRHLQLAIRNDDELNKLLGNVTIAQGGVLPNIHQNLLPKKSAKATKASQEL
T2 sequence (P02293 2-131, chain 4 of 2): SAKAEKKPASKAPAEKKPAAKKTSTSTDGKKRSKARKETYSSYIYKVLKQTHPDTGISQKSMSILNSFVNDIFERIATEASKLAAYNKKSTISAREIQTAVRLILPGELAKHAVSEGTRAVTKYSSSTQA
Cse4-Δ90 octamer, sequence (P04911 2-132, stated change not applied, chain 3 of 2): as the sequence (P04911 2-132, chain 3 of 2) above
Cse4-Δ90 octamer, sequence (P02293 2-131, stated change not applied, chain 4 of 2): as the sequence (P02293 2-131, chain 4 of 2) above

B1: α62 (dsDNA)
DNA 1: CCTGCAGATACTACCAAAAGTGTATTTGGAAACTGCTCCATCAAAAGGCATGTTCAGCTGGA
DNA 2: TCCAGCTGAACATGCCTTTTGATGGAGCAGTTTCCAAATACACTTTTGGTAGTATCTGCAGG
As to B1, the binding result (with Cse4-Δ90 octamer; in data set [1]; in data set [2]) was “binds” in each case.

B2: Cen4 CDEII 78 bp (dsDNA)
DNA 1: CTTATAATCAACTTTTTTAAAAATTTAAAATACTTTTTTATTTTTTATTTTTAAACATAAATGAAATAATTTATTTAT
DNA 2: ATAAATAAATTATTTCATTTATGTTTAAAAATAAAAAATAAAAAAGTATTTTAAATTTTTAAAAAAGTTGATTATAAG
B2: the binding result in data set [3] and in data set [4] was “binds” throughout.
